Data as given in US7893197B2, “Relaxin-3 chimeric polypeptides and their preparation and use” (Janssen Pharmaceutica N.V., priority 2005, dated 2011).
Ends that are not written are not given here.

T1: GPCR135 (Homo sapiens, UniProt Q9NSD7)
T1 construct: expressed in transfected cells
T1 sequence (Q9NSD7 1-469): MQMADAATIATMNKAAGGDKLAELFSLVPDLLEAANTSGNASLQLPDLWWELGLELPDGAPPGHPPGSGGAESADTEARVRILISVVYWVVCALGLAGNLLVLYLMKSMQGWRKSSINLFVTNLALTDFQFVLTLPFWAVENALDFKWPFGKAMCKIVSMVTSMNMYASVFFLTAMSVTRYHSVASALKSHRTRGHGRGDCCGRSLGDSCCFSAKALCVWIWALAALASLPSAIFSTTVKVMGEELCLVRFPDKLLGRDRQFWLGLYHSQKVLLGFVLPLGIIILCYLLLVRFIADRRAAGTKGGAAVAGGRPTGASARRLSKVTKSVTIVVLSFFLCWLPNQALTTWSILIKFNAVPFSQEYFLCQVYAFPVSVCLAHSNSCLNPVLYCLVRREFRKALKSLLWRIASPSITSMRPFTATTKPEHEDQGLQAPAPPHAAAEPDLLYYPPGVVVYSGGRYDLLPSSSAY

T2: LGR7 (Homo sapiens, UniProt Q9HBX9)
T2 construct: Human LGR7 cDNA containing the complete coding region was PCR amplified; expressed in transfected cells
T2 sequence (Q9HBX9 1-757): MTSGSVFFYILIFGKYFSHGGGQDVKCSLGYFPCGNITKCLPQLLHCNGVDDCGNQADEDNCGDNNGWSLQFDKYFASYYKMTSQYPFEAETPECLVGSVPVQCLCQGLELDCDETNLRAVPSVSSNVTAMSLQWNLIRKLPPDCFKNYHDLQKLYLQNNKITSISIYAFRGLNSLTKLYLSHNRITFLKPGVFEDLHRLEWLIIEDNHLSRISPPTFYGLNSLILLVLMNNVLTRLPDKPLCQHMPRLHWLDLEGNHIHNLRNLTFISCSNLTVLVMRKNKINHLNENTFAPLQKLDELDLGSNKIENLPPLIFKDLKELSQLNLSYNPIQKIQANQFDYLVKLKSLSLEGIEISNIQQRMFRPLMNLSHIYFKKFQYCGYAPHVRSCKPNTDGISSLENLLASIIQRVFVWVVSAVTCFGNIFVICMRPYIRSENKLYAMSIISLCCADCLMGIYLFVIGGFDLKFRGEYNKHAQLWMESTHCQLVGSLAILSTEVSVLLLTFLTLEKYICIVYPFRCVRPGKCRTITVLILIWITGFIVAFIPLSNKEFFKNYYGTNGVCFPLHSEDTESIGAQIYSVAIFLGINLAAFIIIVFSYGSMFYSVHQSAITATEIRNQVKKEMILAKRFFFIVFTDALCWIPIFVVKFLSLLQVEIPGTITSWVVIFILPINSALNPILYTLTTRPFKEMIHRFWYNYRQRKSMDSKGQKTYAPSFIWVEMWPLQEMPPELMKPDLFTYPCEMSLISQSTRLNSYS


Experiments:
GPCR142 = target: T3, GPCR142 (Homo sapiens, UniProt Q8TDU9, L329S); assay: Inhibition of forskolin stimulated β-galactosidase expression in SK-N-MC/β-gal cells; type: cell-based; details: for EC50 to activate GPCR142: inhibition of 5 μM forskolin stimulated β-galactosidase expression, mean ± SEM, n = 3
T3 construct: expressed in transfected cells
T3 sequence (Q8TDU9 whole entry L329S): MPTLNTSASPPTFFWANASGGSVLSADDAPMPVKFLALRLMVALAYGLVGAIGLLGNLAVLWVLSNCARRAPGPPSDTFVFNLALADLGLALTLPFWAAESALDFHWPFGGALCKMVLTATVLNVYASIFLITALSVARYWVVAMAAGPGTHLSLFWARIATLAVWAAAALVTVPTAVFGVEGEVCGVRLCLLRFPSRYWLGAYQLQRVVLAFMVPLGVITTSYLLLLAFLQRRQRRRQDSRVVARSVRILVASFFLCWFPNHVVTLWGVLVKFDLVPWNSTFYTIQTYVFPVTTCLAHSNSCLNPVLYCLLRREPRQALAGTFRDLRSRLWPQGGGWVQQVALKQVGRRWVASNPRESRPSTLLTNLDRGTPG
Procedure: (§8) Different chimeric polypeptides at various concentrations were added to SK-N-MC/β-gal cells expressing human GPCR135 (FIG. 4A) or GPCR142 (FIG. 4B) to inhibit forskolin stimulated β-galactosidase expression. […] In parallel, chimeric polypeptides at various concentrations were added to SK-N-MC/β-gal cells expressing human LGR7 (FIG. 4C) and LGR8 (FIG. 4D) to stimulate β-galactosidase expression. Relaxin-3 and INSL3 were used as positive controls for LGR7 and LGR8, respectively. Intracellular β-galactosidase activity was measured by a colorimetric assay using CRGP as the substrate and reading the absorbance at wavelength of 570 nm. Data represent mean±SEM (n=3).

GPCR135 [1] = target: T1, GPCR135; assay: as above; type: cell-based; details: for EC50 to activate GPCR135: inhibition of 5 μM forskolin stimulated β-galactosidase expression, mean ± SEM, n = 3
Procedure: as §8

LGR7 [2] = target: T2, LGR7; assay: Binding of radioligands to COS-7 cells transfected with LGR7; details: radioligand 100 pM
Procedure: (§1) FIGS. 5A-5D illustrate a comparative analysis of the binding specificities of [^125I]-relaxin-3 and [^125I]-R3/I5 for GPCR135 and LGR7. COS-7 cells in 6-well culture dishes were transfected with human GPCR135 and LGR7, respectively. Mock transfected COS-7 cells were used as the negative controls. [^125I]-relaxin-3 (FIG. 5A) or [^125I]-R3/I5 (FIG. 5B) was added to cells at a final concentration of 100 pM either in the absence or presence of 1 uM of unlabeled relaxin-3 to determine total binding and non-specific binding, respectively. FIG. 5C depicts an autoradiogram of [^125]-relaxin-3 binding in rat brain sagittal section. FIG. 5D depicts an autoradiogram of non-specific binding of [^125]-relaxin-3 as determined in the presence of 100 nM of unlabeled relaxin-3. FIG. 5E depicts an autoradiogram of [^125]-R3/I5 binding in rat brain sagittal section. […] binding of [^125]-R3/I5 as determined in the presence of 100 nM of unlabeled relaxin-3.

GPCR135 [3] = target: T1, GPCR135; assay: Binding of radioligands to COS-7 cells transfected with GPCR135; details: radioligand 100 pM
Procedure: as §1

LGR7 [4] = target: T2, LGR7; assay: Radioligand competition binding, [125I]-relaxin-3, live transfected COS-7 cells; details: [125I]-relaxin-3 100 pM; mean ± SEM, n = 3
Procedure: For GPCR135, GPCR142, and LGR7, [^125I]-relaxin-3 was used as the radioligand at a final concentration of 100 pM. Different unlabeled peptides were used in the binding assay as the competitors. […] Different unlabeled peptides including relaxin-3 chimeras at various concentrations were added to the binding assay as the competitors. Data represent mean±SEM (n=3).
Radioligand binding assays for LGR7 and LGR8 were performed using live COS-7 cells transiently transfected with LGR7 or LGR8 expression plasmids in 15-cm culture dishes using LipofectAmine (Invitrogen). Two days after transfection, the transfected cells were detached from the 15-cm culture dished using phosphate buffered saline (PBS) plus 10 mM EDTA, seeded into 96-well opaque poly-D-lysine coated culture plates and used for radioligand binding assays. For LGR7, [^125I]-relaxin-3 was used as the tracer. […] [^125I]-labeled tracer was added in binding reactions at a final concentration of 100 pM in binding buffer containing DMEM plus 50 mM HEPES and 1% bovine serum albumin. Unlabeled relaxin-3 and relaxin-3 chimeric polypeptides were added at various concentrations to the binding assays as the competitors, as indicated (FIG. 3). The binding mixtures were incubated at room temperature for 1 hour. The unbound radioligand was removed by aspiration of the binding buffer. The cells were washed with PBS. The bound radioligand was counted in a scintillation counter (TopCount/NTX). The results were analyzed using Prism 3.0 program (Graphpad, San Diego, Calif.). The IC50 values represent the ligand concentrations that inhibit 50% of the maximum specific binding.

LGR8 = target: T4, LGR8 (Homo sapiens, UniProt Q8WXD0); assay: Stimulation of β-galactosidase expression in SK-N-MC/β-gal cells; type: cell-based
T4 construct: Human LGR8 cDNA containing the complete coding region was PCR amplified; expressed in transfected cells
T4 sequence (Q8WXD0 whole entry): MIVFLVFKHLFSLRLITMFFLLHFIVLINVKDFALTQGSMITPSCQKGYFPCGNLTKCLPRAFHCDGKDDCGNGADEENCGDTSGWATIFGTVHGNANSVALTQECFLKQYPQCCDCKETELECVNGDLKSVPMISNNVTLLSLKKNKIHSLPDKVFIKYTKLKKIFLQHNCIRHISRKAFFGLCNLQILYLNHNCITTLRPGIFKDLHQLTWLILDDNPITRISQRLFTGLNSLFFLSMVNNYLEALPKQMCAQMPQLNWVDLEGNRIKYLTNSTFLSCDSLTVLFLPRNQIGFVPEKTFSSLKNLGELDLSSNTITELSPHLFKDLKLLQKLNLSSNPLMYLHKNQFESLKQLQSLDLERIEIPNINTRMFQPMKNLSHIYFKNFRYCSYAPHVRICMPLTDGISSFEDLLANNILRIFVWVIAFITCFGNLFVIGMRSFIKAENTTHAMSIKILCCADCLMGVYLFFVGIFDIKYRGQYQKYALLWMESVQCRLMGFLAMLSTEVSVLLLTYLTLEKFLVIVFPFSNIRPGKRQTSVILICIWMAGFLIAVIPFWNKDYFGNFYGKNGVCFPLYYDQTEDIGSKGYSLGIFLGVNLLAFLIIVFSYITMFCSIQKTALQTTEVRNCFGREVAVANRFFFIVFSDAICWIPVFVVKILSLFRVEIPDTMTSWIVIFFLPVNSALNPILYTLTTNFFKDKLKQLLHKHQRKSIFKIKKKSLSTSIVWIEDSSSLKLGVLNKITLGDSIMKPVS
Procedure: (§2) FIGS. 1A-1D show the activation of GPCR135 and GPCR142 by relaxin-3 B-chain, but not of LGR7 or LGR8. In FIG. 1A, SK-N-MC/β-gal cells expressing human GPCR135 were stimulated with relaxin-3, relaxin-3 B-chain, porcine relaxin, or INSL3 at various concentrations to inhibit the forskolin stimulated β-galactosidase expression. Forskolin was added to cells at a final concentration of 5 μM to stimulate the β-galactosidase expression. FIG. 1B depicts results for SK-N-MC/β-gal cells expressing human GPCR142 stimulated as in FIG. 1A. In FIG. 1C, SK-N-MC/β-gal cells expressing human LGR7 were stimulated with relaxin-3, relaxin-3 B-chain, porcine relaxin, and INSL3 at various concentrations to induce the β-galactosidase expression. The intracellular β-galactosidase activities were measured by a colorimetric assay using CRGP as the substrate and reading the absorbance at a wavelength of 570 nm. For FIG. 1D, SK-N-MC/β-gal cells expressing human LGR8 were stimulated as in FIG. 1C.
(§3) FIGS. 4A-4D illustrate the evaluation of the agonist activity of relaxin-3 chimeric polypeptides in biofunctional assays. Different chimeric polypeptides at various concentrations were added to SK-N-MC/β-gal cells expressing human GPCR135 (FIG. 4A) or GPCR142 (FIG. 4B) to inhibit forskolin stimulated β-galactosidase expression. Human relaxin-3 was used as the positive control. In parallel, chimeric polypeptides at various concentrations were added to SK-N-MC/β-gal cells expressing human LGR7 (FIG. 4C) and LGR8 (FIG. 4D) to stimulate β-galactosidase expression. Relaxin-3 and INSL3 were used as positive controls for LGR7 and LGR8, respectively. Intracellular β-galactosidase activity was measured by a colorimetric assay using CRGP as the substrate and reading the absorbance at wavelength of 570 nm. Data represent mean±SEM (n=3).
(§4) It has been shown that synthetic human relaxin-3 B-chain alone, but not A-chain, is an agonist for both GPCR135 and GPCR142 (Liu et al., 2003, Journal of Biological Chemistry, 278:50754-50764 and Liu et al., 2003, Journal of Biological Chemistry, 278:50765-50770). Those studies were repeated herein in SK-N-MC/β-gal cells, which harbor a β-galactosidase gene under the control of a cAMP responsive element (CRE) (Liu et al., 2001, Molecular Pharmacology, 59:420-426). In such SK-N-MC/β-gal cells, an increase in intracellular cAMP concentration leads to increased β-galactosidase gene expression, the activity of which is measured using Chlorophenol Red-β-D-Galactopyranoside (CPRG) as the substrate.
(§5) The inventive chimeric polypeptides were each independently tested for their ability to activate either GPCR135, GPCR142, LGR7, or LGR8, respectively, in separate pools of SK-N-MC/β-gal cells (see supra), each pool stably expressing one of the respective receptors, as indicated (FIG. 4).
(§6) Cells were seeded in 96-well tissue culture plate at a density of 30,000 cells/well in MEM plus 10% fetal serum, sodium pyruvate, penicillin, streptomycin, and G418 (400 mg/L). For cells expressing GPCR135 or GPCR142, forskolin was added to cells at a final concentration of 5 μM to stimulate intracellular cAMP accumulation. Different concentrations of each of the inventive polypeptides were then added to the cells to inhibit the forskolin induced cAMP accumulation. For cells expressing LGR7 or LGR8, intracellular cAMP was stimulated with each of the inventive chimeric polypeptides at various concentrations.
(§7) For all cells, after adding the chimeric polypeptides, cells were incubated for 6 additional hours in 37° C. incubator. The media was then aspirated and the β-galactosidase activities measured as previously described (Liu et al., 2001, Molecular Pharmacology, 59:420-426). The results were analyzed by Prism 3.0 software. […]

LGR7 [5] = target: T2, LGR7; assay: as above; type: cell-based; details: ligand stimulated β-galactosidase expression; mean ± SEM, n = 3; read-out: EC50 to activate LGR7
Procedure: as §2, §3, §4, §5, §6, §7

| Molecule | EC50 to activate GPCR142 (GPCR142) | IC50 for binding LGR7 (LGR7 [4]) | EC50 to activate GPCR135 (GPCR135 [1]) | other results |
| --- | --- | --- | --- | --- |
| CC[C@H](C)[C@H](NC(=O)[C@H](Cc1ccccc1)NC(=O)[C@H](CCC(=O)O)NC(=O)[C@H](CCCNC(=N)N)NC(=O)CNC(=O)[C@H](CS)NC(=O)[C@H](CC(C)C)NC(=O)[C@H](CCCNC(=N)N)NC(=O)[C@@H](NC(=O)CNC(=O)[C@H](Cc1ccc(O)cc1)NC(=O)[C@@H]1CCCN1C(=O)[C@H](C)NC(=O)[C@H](C)NC(=O)[C@@H](N)CCCNC(=N)N)C(C)C)C(=O)N[C@@H](CCCNC(=N)N)C(=O)N[C@@H](C)C(=O)N[C@H](C(=O)N[C@H](C(=O)N[C@@H](Cc1ccccc1)C(=O)N[C@H](C(=O)N[C@@H](CS)C(=O)NCC(=O)NCC(=O)N[C@@H](CO)C(=O)N[C@@H](CCCNC(=N)N)C(=O)N[C@@H](Cc1c[nH]c2ccccc12)C(=O)O)[C@@H](C)O)[C@@H](C)CC)C(C)C [relaxin-3 B-chain, reference compound] | – | – | – | EC50 (GPCR142; read-out: EC50 to activate GPCR142): 0.125 µM; EC50 (GPCR135 [1]; read-out: EC50 to activate GPCR135): 0.088 µM |
| [^125I]-relaxin-3: radioiodinated human relaxin-3 used as tracer (RAAPYGVRLCGREFIRAVIFTCGGSRWDVLAGLSSSCCKWGCSKSEISSLC; ends and bridges not checked; also: radioiodinated ([125I]), site not given here) [reference compound] | – | – | – | binding to LGR7, in words (LGR7 [2]): did; binding to GPCR135 expressing cells, in words (GPCR135 [3]): high affinity |
| R3/I3: chimeric polypeptide: human relaxin-3 B-chain and INSL3 A-chain; mature polypeptide SEQ ID NO:21 (RAAPYGVRLCGREFIRAVIFTCGGSRWNPARYCCLSGCTQQDLLTLC; Human Relaxin-3/Insulin-like 3 chimeric mature polypeptide) | low nanomolar range | low nanomolar range | low nanomolar range | – |
| R3/R2: chimeric polypeptide: human relaxin-3 B-chain and relaxin-2 A-chain; mature polypeptide SEQ ID NO:20 (RAAPYGVRLCGREFIRAVIFTCGGSRWQLYSALANKCCHVGCTKRSLARFC; Human Relaxin-3/Relaixin-2 chimeric mature polypeptide) | low nanomolar range | low nanomolar range | low nanomolar range | – |
| R3/R1: chimeric polypeptide: human relaxin-3 B-chain and relaxin-1 A-chain; mature polypeptide SEQ ID NO:19 (RAAPYGVRLCGREFIRAVIFTCGGSRWPYVALFEKCCLIGCTKRSLAKYC; Human Relaxin-3/Relaxin-1 chimeric mature polypeptide) | low nanomolar range | low nanomolar range | low nanomolar range | activation of LGR8, in words (LGR8; highest concentration tested 1 μM): marginal activity at the highest concentration tested (1 μM) |
| porcine relaxin: porcine relaxin, reference ligand for LGR7 and LGR8 (protein) QSTNDFIKACGRELVRLWVEICGSVSWGRTALSLEEPQLETGPPAETMPSSITKDAEILKMMLEFVPNLPQELKATLSERQPSLRELQQSASKDSNLNFEEFKKIILNRQNEAEDKSLLELKNLGLDKHSRKKRLFRMTLSEKCCQVGCIRKDIARLC | – | – | – | EC50 (LGR7 [5]): 0.00025 µM; EC50 (LGR8; ligand stimulated β-galactosidase expression, mean ± SEM, n = 3, read-out: EC50 to activate LGR8): 0.0015 µM |
